These results are taken from paper PMC8402611, “Generation and Characterization of a Spike Glycoprotein Domain A-Specific Neutralizing Single-Chain Variable Fragment against Porcine Epidemic Diarrhea Virus” (Vaccines, 2021).

Experiment [1] concerns the target T1, S protein of PEDV-CV777 (G1 PEDV) (Porcine epidemic diarrhea virus, CV777 …, UniProt H2DFZ6).
T1 construct: spike (S) protein of porcine epidemic diarrhea virus strain CV777; stood on infected cells and on purified virions; The antigen in the assays was the infected cell or the whole virion; also called G1 PEDV S protein; historic vaccine strain; source: PEDV-CV777 in infected Vero cells (acetone-fixed); purified PEDV-CV777 virions
Kind of experiment: immunostaining of cells or tissue; ICC (HRP/DAB) and IFA (FITC) on PEDV-infected Vero cells fixed with 80% acetone; scFv 5 ug/mL in PBS for 1 h, detected by anti-V5 antibody; PBS blank as background control. The following applies: one partner purified.

In experiment [2] the target is T2, ectodomain of the S protein of PEDV (GeneBank no. HC070225-S) (Porcine epidemic diarrhea virus, …, UniProt A0A1Y0DDF5).
T2 construct: spike (S) glycoprotein of porcine epidemic diarrhea virus, ectodomain; also called PEDV S protein; purified trimeric PEDV S glycoprotein; source: Expi293F cells, secreted, purified from the culture medium
Kind of experiment: retention on a 100 kDa MWCO spin column (called immunoprecipitation pull-down assay); 25 pmol S protein with 125 pmol scFv, 37 C for 3 h; 100 kDa MWCO filtration, 10 washes with dPBS; SDS-PAGE with Coomassie; control of scFv alone. To be noted: both partners purified.

T1 sequence (Q91AV1 26-1383): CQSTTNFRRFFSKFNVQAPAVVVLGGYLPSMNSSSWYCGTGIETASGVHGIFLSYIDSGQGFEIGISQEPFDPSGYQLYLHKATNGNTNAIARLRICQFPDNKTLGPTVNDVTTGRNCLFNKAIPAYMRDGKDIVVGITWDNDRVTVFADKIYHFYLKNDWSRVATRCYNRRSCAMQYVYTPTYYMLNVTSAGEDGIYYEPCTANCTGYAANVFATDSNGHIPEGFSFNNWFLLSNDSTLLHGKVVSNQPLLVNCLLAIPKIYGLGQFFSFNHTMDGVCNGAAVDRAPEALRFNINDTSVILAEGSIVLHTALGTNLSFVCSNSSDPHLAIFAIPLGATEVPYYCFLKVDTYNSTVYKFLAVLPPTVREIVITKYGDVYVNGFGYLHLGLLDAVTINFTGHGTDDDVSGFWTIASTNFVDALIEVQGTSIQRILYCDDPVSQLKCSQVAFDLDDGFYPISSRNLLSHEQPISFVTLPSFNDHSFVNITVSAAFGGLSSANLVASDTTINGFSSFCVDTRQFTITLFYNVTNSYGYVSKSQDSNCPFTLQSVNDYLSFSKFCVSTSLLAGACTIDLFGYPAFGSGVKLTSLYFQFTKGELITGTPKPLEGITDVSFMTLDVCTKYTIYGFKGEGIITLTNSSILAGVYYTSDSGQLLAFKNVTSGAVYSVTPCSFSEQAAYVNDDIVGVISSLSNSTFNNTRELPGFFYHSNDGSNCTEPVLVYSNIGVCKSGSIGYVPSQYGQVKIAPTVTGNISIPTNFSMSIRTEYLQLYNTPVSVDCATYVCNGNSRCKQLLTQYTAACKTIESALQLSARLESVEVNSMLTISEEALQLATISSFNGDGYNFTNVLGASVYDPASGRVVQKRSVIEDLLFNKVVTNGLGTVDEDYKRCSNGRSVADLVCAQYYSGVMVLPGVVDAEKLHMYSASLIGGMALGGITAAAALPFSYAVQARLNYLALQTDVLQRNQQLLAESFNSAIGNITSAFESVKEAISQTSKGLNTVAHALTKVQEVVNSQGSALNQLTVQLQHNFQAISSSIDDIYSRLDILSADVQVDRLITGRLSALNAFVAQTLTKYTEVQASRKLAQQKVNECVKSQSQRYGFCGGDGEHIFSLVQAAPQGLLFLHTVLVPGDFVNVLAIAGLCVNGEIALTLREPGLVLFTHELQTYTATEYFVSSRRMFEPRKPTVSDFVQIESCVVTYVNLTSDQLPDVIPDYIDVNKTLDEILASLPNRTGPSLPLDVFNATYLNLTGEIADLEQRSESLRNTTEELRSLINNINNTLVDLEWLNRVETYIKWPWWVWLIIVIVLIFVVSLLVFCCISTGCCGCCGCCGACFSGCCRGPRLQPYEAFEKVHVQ

B1: recombinant scFv of the PEDV S1^A-specific neutralizing monoclonal antibody E10E-1-10 (scFv, V domains shown)
VH: QVQLQQSGAELARPGTSVKMSCKASGYTFTNYMMHWIKQRPGQGLEWIGYINPSTGYTNYNQKFKDKATLTADKSSSTAYVQLNILTSEDSAVYYCATSTLITGDYWGQGTTLTVSS
VL: NIVLTQSPKSMSMSVGERVTLSCKASENVGTYVSWYQQKPKQSPKLLIYGTFNRYTGVPDRFTGSGSATDFTLTISSVQAEDLADYHCGQSYNYPFTFGSGTKLEIK
notes: (G4S)3 linker; About 30 kDa; The order VL, linker, VH follows the order in which the methods name the regions; also called E10E-1-10 scFv; anti-PEDV S1^A scFv; source: Expi293F cells, transfected, secreted; purified from the supernatant (IMAC on cobalt resin, SEC on Superdex 75 Increase)
On to B1, for which the binding result in experiment [1] and in experiment [2] was “binds” each time.
